Residue numbers refer to the chain shown, from its start. Names may count otherwise. Where two headings read alike, the source gives them in different places.
Columns and labels:
Test in all cases: split reporter (BiFC, NanoBiT); split-GFP (mGFP2 split between residues 157 and 158) in Hfx. volcanii transformants in vivo; eight combinations of fusions a pair, highest relative fluorescence (rf) given; cells in basal salts (3 M NaCl, 150 mM MgSO4, 50 mM KCl) at OD600 1; rf > 5 clear interaction, rf < 1 no interaction
[1] = target: GvpF fused to NGFP or CGFP (split-GFP) (Halobacterium salinarum PHH1)
[2] = target: GvpL fused to NGFP or CGFP (split-GFP) (Halobacterium salinarum PHH1)
[3] = target: GvpG fused to NGFP or CGFP (split-GFP) (Halobacterium salinarum PHH1)
[4] = target: GvpI fused to NGFP or CGFP (split-GFP) (Halobacterium salinarum PHH1)
[5] = target: GvpF fused to NGFP or CGFP (split-GFP) (Halobacterium salinarum PHH1); remark: listed apart in the source
[6] = target: GvpJ fused to NGFP or CGFP (split-GFP) (Halobacterium salinarum PHH1)
[7] = target: GvpH fused to NGFP or CGFP (split-GFP) (Halobacterium salinarum PHH1)
[8] = target: GvpG fused to NGFP or CGFP (split-GFP) (Halobacterium salinarum PHH1); remark: listed apart in the source
[9] = target: GvpL fused to NGFP or CGFP (split-GFP) (Halobacterium salinarum PHH1); remark: listed apart in the source
[10] = target: GvpI fused to NGFP or CGFP (split-GFP) (Halobacterium salinarum PHH1); remark: listed apart in the source
[11] = target: GvpK fused to NGFP or CGFP (split-GFP) (Halobacterium salinarum PHH1)
[12] = target: GvpM fused to NGFP or CGFP (split-GFP) (Halobacterium salinarum PHH1)

Sequence of GvpL fused to NGFP or CGFP (split-GFP) (Halobacterium salinarum PHH1) (Q9HI27 whole entry, the tested form may be a part): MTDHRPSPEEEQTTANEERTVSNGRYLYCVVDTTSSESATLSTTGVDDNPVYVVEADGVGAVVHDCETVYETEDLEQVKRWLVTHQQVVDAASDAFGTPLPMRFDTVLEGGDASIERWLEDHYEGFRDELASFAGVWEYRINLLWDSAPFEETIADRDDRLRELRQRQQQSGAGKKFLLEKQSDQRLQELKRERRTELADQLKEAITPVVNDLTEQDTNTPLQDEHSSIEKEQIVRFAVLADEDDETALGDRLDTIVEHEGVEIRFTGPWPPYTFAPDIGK
Sequence of GvpF fused to NGFP or CGFP (split-GFP) (Halobacterium salinarum PHH1) (P24370 whole entry, the tested form may be a part): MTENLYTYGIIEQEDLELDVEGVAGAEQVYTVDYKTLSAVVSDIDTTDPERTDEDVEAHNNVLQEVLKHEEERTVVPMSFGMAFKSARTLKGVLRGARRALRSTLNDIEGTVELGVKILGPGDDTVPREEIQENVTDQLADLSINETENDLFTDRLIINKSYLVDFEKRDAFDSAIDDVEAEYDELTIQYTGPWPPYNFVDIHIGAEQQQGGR
Sequence of GvpG fused to NGFP or CGFP (split-GFP) (Halobacterium salinarum PHH1) (P24371 whole entry, the tested form may be a part): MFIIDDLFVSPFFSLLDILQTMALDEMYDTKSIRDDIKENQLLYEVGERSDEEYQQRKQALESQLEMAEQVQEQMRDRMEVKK

Molecule “GvpI fused to NGFP or CGFP (split-GFP) (natural protein)” has a highest relative fluorescence (rf) [1] of 6.3 rf and a highest relative fluorescence (rf) [2] of 13.7 rf.

With “GvpF fused to NGFP or CGFP (split-GFP) (natural protein)” the relative fluorescence (rf) [1] was 1.5 rf and the highest relative fluorescence (rf) [2] was 16.6 rf.

“GvpK fused to NGFP or CGFP (split-GFP) (natural protein)” gave a highest relative fluorescence (rf) [2] of 7.4 rf.

Work on “GvpG fused to NGFP or CGFP (split-GFP) (natural protein)” yielded a relative fluorescence (rf) [3] of 3.5 rf, a highest relative fluorescence (rf) [1] of 5 rf and a highest relative fluorescence (rf) [2] of 77.5 rf.

Molecule “GvpH fused to NGFP or CGFP (split-GFP) (natural protein)” has a highest relative fluorescence (rf) [1] of 6.3 rf, a highest relative fluorescence (rf) [2] of 11.4 rf and a highest relative fluorescence (rf) [4] of 20 rf.

B1: GvpA fragment A20-47 fused to NGFP or CGFP (split-GFP) (domain or fragment)
chain: GVVVDVWARVSLVGIEILTVEARVVAAS
In the case of B1, the highest relative fluorescence (rf) [5] is reported as < 1 rf.

B2: GvpA fused to NGFP or CGFP (split-GFP) (natural protein)
chain: MAQPDSSGLAEVLDRVLDKGVVVDVWARVSLVGIEILTVEARVVAASVDTFLHYAEEIAKIEQAELTAGAEAAPEA
For B2, the highest relative fluorescence (rf) [6] was < 1 rf, the highest relative fluorescence (rf) [7] was < 1 rf and the highest relative fluorescence (rf) [8] was < 1 rf. For the same molecule, the highest relative fluorescence (rf) [5] was 20 rf, the relative fluorescence (rf) [5] was 15 to 18 rf and the highest relative fluorescence (rf) [9] was < 1 rf. The highest relative fluorescence (rf) [10] was < 1 rf, the highest relative fluorescence (rf) [11] was < 1 rf and the highest relative fluorescence (rf) [12] was < 1 rf.

B3: GvpA G20D (split-GFP fusion) (natural protein)
chain: B2 chain with G20D
With B3 the relative fluorescence (rf) [5] was < 6 rf.

B4: GvpA R28D (split-GFP fusion) (natural protein)
chain: B2 chain with R28D
With B4 the relative fluorescence (rf) [5] was < 6 rf.

B5: GvpA D24Y (split-GFP fusion) (natural protein)
chain: B2 chain with D24Y
For B5, the relative fluorescence (rf) [5] was < 6 rf.

B6: GvpA E40A (split-GFP fusion) (natural protein)
chain: B2 chain with E40A
For B6, the relative fluorescence (rf) [5] was < 6 rf.

B7: GvpA G20A (split-GFP fusion) (natural protein)
chain: B2 chain with G20A
B7 was tested, and the relative fluorescence (rf) [5] was < 6 rf.

B8: GvpA D24A (split-GFP fusion) (natural protein)
chain: B2 chain with D24A
In the case of B8, the relative fluorescence (rf) [5] is reported as < 6 rf.

B9: GvpA R28A (split-GFP fusion) (natural protein)
chain: B2 chain with R28A
In the case of B9, the relative fluorescence (rf) [5] is reported as < 6 rf.

B10: GvpA fragment A44-76 fused to NGFP or CGFP (split-GFP) (domain or fragment)
chain: VAASVDTFLHYAEEIAKIEQAELTAGAEAAPEA
With B10 the highest relative fluorescence (rf) [5] was < 1 rf.

B11: GvpA fragment A1-22 fused to NGFP or CGFP (split-GFP) (domain or fragment)
chain: MAQPDSSGLAEVLDRVLDKGVV
Molecule B11 has a highest relative fluorescence (rf) [5] of 41 rf.

From paper PMC7688916 (2020)
